Reference: paper PMC3815026, “Serglycin Is Implicated in the Promotion of Aggressive Phenotype of Breast Cancer Cells” (PLoS ONE, 2013)

Assays:
mannose-binding lectin = biological target: T1, mannose-binding lectin (UniProt P11226 21-248); assay: ELISA; solid phase binding assay: microtiter plates coated with 5 µg/ml serglycin (as GAG content), blocked with 1% BSA; C1q or MBL added at increasing concentrations in 50 mM Hepes pH 7.4, 150 mM NaCl, 2 mM CaCl2, 1 h at RT; bound protein detected with antibodies; KD from the slope of a Scatchard-type plot; conditions: both partners purified
T1 construct: Neither the species nor the oligomeric state is stated; Human MBL is surmised; also called MBL; source: bought: Statens Serum Institute (Denmark)
T1 sequence (P11226 21-248): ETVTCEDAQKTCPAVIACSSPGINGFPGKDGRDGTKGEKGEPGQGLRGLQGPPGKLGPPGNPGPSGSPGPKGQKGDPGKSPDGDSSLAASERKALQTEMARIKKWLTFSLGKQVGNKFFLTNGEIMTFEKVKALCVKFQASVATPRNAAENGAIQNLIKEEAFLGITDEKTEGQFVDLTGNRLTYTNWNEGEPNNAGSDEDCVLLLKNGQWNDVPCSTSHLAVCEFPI

C1q = biological target: T2, C1q (UniProt P02745 23-245; P02746 28-253; P02747 29-245); assay: as above; conditions: both partners purified
T2 construct: complement C1q subcomponent subunit A; complement C1q subcomponent subunit B; complement C1q subcomponent subunit C; also called complement component C1q; purified C1q; source: bought: Sigma-Aldrich; copies: + +
T2 sequence (P02745 23-245, chain 1 of 3): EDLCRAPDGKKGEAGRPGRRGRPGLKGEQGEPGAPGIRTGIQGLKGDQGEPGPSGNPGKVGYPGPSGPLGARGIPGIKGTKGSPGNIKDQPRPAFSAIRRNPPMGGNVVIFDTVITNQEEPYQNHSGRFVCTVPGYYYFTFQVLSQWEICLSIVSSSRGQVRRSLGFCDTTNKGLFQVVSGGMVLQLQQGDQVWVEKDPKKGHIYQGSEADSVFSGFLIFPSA
T2 sequence (P02746 28-253, chain 2 of 3): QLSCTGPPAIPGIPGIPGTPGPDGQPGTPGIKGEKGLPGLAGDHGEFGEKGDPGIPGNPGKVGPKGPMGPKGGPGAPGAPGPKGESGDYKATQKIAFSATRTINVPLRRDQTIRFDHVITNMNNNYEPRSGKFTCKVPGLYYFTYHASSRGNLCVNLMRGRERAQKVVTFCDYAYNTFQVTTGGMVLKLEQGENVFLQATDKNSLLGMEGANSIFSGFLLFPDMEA
T2 sequence (P02747 29-245, chain 3 of 3): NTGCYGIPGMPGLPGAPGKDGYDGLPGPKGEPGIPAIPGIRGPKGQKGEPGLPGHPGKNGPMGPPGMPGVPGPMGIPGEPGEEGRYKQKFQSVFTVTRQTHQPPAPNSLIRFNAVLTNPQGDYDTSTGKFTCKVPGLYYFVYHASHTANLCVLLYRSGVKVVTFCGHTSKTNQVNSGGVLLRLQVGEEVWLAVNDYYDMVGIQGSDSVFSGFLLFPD

B1: Serglycin isolated from conditioned medium of MDA-MB-231 breast cancer cells (total glycanated serglycin) (natural protein, human (endogenous in MDA-MB-231), UniProt P10124 28-158, looked up)
chain: YPTRRARYQWVRCNPDSNSANCLEEKGPMFELLPGESNKIPRLRTDLFPKTRIQDLNRIFPLSEDYSGSGFGSGSGSGSGSGSGFLTEMEQDYQLVDESDAFHDNLRSLDRNLPSDSQDLGQHGLEEDFML
modifications: chondroitin sulfate side chains (4-sulfated 87%, 6-sulfated 10%, non-sulfated 3% disaccharides)
notes: serglycin core protein, secreted proteoglycan of ~250-300 kDa, core protein seen at ~28 kDa after chondroitinase ABC; Proteoglycan: GAG content about 94.5% and core protein about 5.5% of the total mass; also called SG; breast cancer-derived serglycin; source: endogenous, secreted by MDA-MB-231 cells; purified from culture medium (DEAE-Sephacel, Sepharose CL-4B)
In the case of B1, the Kd (mannose-binding lectin) is reported as 48 nM and the Kd (C1q) is reported as 20 nM.
